Measurements taken from PMC3680417, “Phosphorylation of the Leukemic Oncoprotein EVI1 on Serine 196 Modulates DNA Binding, Transcriptional Repression and Transforming Ability”.

Legend:
GST-Evi1 ZF1-7 S196A = GST-Evi1 ZF1-7 S196A (mouse, UniProt P14404-1 21-239, S196A); test: EMSA; EMSA as in cited ref. 6; native 5% acrylamide gel; buffer, salt, pH and temperature not stated; conditions: protein: recombinant; tags: GST (N-terminal, pGEX); label: 5' IRDye
GST-Evi1 ZF1-7 WT = GST-Evi1 ZF1-7 WT (mouse, UniProt P14404-1 21-239); test: as above; conditions: protein: recombinant; tags: GST (N-terminal, pGEX); label: 5' IRDye
Chain of GST-Evi1 ZF1-7 WT (P14404 211-429): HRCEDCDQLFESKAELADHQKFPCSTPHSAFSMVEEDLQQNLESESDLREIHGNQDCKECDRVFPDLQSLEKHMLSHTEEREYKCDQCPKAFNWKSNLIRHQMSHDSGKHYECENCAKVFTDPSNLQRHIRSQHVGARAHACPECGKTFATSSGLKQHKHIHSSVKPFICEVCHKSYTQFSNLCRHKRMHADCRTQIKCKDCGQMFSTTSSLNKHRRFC

Chain of GST-Evi1 ZF1-7 S196A (P14404 211-429 S386A): as the sequence (P14404 211-429) above, with S176A counted along it

B1: EVI1 ZF1-7 target EMSA probe (dsDNA)
DNA 1: ACCCATGGAGCTTTGAGCCCTGTTATCTTGTCAGGGAAGTGTACCATGGA
DNA 2: TCCATGGTACACTTCCCTGACAAGATAACAGGGCTCAAAGCTCCATGGGT
GST-Evi1 ZF1-7 S196A
  binding result: binds
GST-Evi1 ZF1-7 WT
  binding result: binds
